Molecular target: the molecule itself
Assay: crystal structure

B1: Yersinia pestis cyclic AMP (cAMP) receptor protein (Crp) (natural protein)
chain: MVLGKPQTDPTLEWFLSHCHIHKYPSKSTLIHQGEKAETLYYIVKGSVAVLIKDEEGKEMILSYLNQGDFIGELGLFEEGQERSAWVRAKTACEVAEISYKKFRQLIQVNPDILMRLSSQMANRLQITSEKVGNLAFLDVTGRIAQTLLNLAKQPDAMTHPDGMQIKITRQEIGQIVGCSRETVGRILKMLEDQNLISAHGKTIVVYGTR
notes: also called Y. pestis Crp
Q: With B1 as the protein, how does the “stoichiometry N” value read?
A: 2

Reference: PMC6867900, “The Cyclic AMP Receptor Protein Regulates Quorum Sensing and Global Gene Expression in Yersinia pestis during Planktonic Growth and Growth in Biofilms” (mBio, 2019)
